The record followed here is the nanobody polyreactivity screen of Harvey et al. (2022).

This data set can be described thus: yeast display, Sf9 membrane polyspecificity reagent, FACS + sequencing; frameworks hold sequencing errors. In short, it runs like this: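 Nanobodies from a synthetic yeast display library (Saccharomyces cerevisiae BJ5465), induced 36–48 hours with galactose, were stained 1 hour at 4 °C with 10% biotinylated, detergent-solubilized Sf9 membrane reagent, enriched on streptavidin microbeads, then FACS-sorted. Anti-HA (expression) and streptavidin (reagent binding) fluorescence set low and high (top ~1%) gates. Polyreactivity labels come from the gate of origin. Genes were colony-PCR amplified, MiSeq 2 × 250 sequenced and filtered by CDR length.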
With “QVQLVESGGGLVQAGGSLRLSCAASGITFHRYAMGWYRQAPGKERELVAAITKRGGSTNYADSVKGRFTISRDNAKNTVYLQMNSLKPEDTAVYYCNARSTWPSGRYAHYRRYYYWGQGTQVTVSS”, the “polyreactivity (PSR sort gate)” value was “high polyreactivity”.
For “QVQLVESGGGLVQAGGSLRLSCAASGITFHWYAMGWYRQAPGKERELVAAITSSGDSTFYADSVKGRFTISRDNAKNSVYLQMNSLKPEDTAVYYCAVDVYVGYWGRLYYWGQGTQVTVSS” the value was “low polyreactivity”.
For “QVQLVESGGGLVQAGGSLRLSCAASGITFIPNAMGWYRQAPGKERELVAAISISGGRTYYADSVKGRFTISRDNAKNTVYLQMNSLKPEVTAVYYCAVDSWSRVQGWLAHNYDYWGQGTQVTVSS” the value was “low polyreactivity”; for “QVQLVESGGGLVQAGGSLRLSCAASGITFIRYAMGWYRQAPGKERELVAAIDWDGSSTYYADSVKGRFTISRDNAKNTGYLQMNSLKPEDTSVYYCNTDYTGPDGTDDYDYWGQGTQVTVSS”, “low polyreactivity”; for “QVQLVESGGGLVQAGGSLRLSCAASGITFIRYAMGWYRQAPGKERELVAVITRSGGRTYYADSVKGRFTISRDNAKNTVYLQMNILKPEDTAVYYCAARAYGYDEYEYWGQGTQVTVSS”, “high polyreactivity”.
For “QVQLVESGGGLVQAGGSLRLSCAASGITFIYYAMGSYRQAPGKERELVAAISKSGGRTYYADSVKGRFTISRDNAKNTVYLQMNSLKPEDSAVYYCNKLVGDDTSLYDYWGQGTQVTVSS” the value was “high polyreactivity”; for “QVQLVESGGGLVQAGGSLRLSCAASGITFIYYMGWYRQAPGKERELVAAITWSGGSTYYADSVKGRFTISRDNAKNTVLLQMNSLKPVDNAVYYCAAVRRAEEYDYWGQGTQVTVSS”, “low polyreactivity”; for “QVQLVESGGGLVQAGGSLRLSCAASGITFKANAMGWYRQAPGKERELVAAIRQNGGDTYYADSVKGRFTISRDNAKNTVYLQMNSLKPEDTAVYYCNARLRGAGGYTFYYWGQGTQVTVSS”, “high polyreactivity”.
As for “QVQLVESGGGLVQAGGSLRLSCAASGITFKGYTMGWYRQAPGTERELVATISRGGRTYADSVKGRFTISRDNAKNTVYLQMNSLKPEDTAVYYCAADKYWAQNDYWGQGTQVTVSS”, the “polyreactivity (PSR sort gate)” value is “low polyreactivity”.
With “QVQLVESGGGLVQAGGSLRLSCAASGITFKSYDMGWYRQAPGKERELVAAITSGVSTHYADSVKGRFTISRDNAKNTVYLQMNSLKPEDTAVYYCAADYTWYYPYWIMDYWGQGTQVTVSS” the entry was “low polyreactivity”.
With “QVQLVESGGGLVQAGGSLRLSCAASGITFKWNDMGWYRQAPGKEREFVAAITGSTGSTFYAGSVKGRFTISRDNAKNTVYLQMNSLKPEDTAVYYCAAGPWFYYWGQGTQVTVSS” the entry was “low polyreactivity”.
For “QVQLVESGGGLVQAGGSLRLSCAASGITFKYYGMGWYRQAPGKERELVAAISWSGASTYYADSVKRRFTISRDNAKNTVYLQMNSLKPEDTAVYYCAAVRRRGQRGRLDYWGQGTQVTVSS” the value was “high polyreactivity”.
Take “QVQLVESGGGLVQAGGSLRLSCAASGITFKYYVMGWYRQAPGKERELVAAISYDGGSTYYADSVKGRFTISRDNAKNTVYLQMNSLKPEDTAVYYCAAPVWIDGDESGYEYDYWGQGTQVTVSS”: the “polyreactivity (PSR sort gate)” value was “low polyreactivity”.
Turning to “QVQLVESGGGLVQAGGSLRLSCAASGITFLAYAMGWYRQAPGKERELVAGISKSGGNTYYADSVKGRFTISRDNAKNTVYLQMNSLKPEDTAVYYCAARYRLTYFDANYRYGYWGQGTQVTVSS”, the “polyreactivity (PSR sort gate)” value is “high polyreactivity”.
Turning to “QVQLVESGGGLVQAGGSLRLSCAASGITFLPYAMGWYRPAPGKERELVAAITRGGGSTYADSVKGRFTISRDNAKNTVYLQMYSLKPEDTAVYYCNAKGRGWTAQYDYWGQGTQVTVSS”, the “polyreactivity (PSR sort gate)” value is reported as “low polyreactivity”.
With “QVQLVESGGGLVQAGGSLRLSCAASGITFLSNAMGWYRQAPGKERELVAAIDWRGDSTYYADSVKGRFTISRDNAKNTGYLQMNRLKPEDTAVYYCNADISGSGQWDGYDYWGQGTQVTVSS” the entry was “low polyreactivity”; with “QVQLVESGGGLVQAGGSLRLSCAASGITFNGYVMGWYRQAPGKERELVAAITSGGSTNYADSVKGRFTISRDNAKNTVYLQMNSLKPEDTAVYYCAARYKAYWQLYDYWGQGTQVTVSS”, “high polyreactivity”; with “QVQLVESGGGLVQAGGSLRLSCAASGITFNHYTMGWYRQAPGKERELVAAISSRGSTTYYADSVKGRFTISRDNAKNTVYLQMNSLKPEDTAVYYCAARYPTYYRPRYRGRPGYDYWGKGTQVTVSS”, “high polyreactivity”.
With “QVQLVESGGGLVQAGGSLRLSCAASGITFNLYAMGWYRQAPGKERELVASINSGGSPYYADSVKGRFTISRDNAKNTVYLQMNSLKPEDTAVYYCAAETSYYYRGYWKSYDYWGQGTQVTVSS” the entry was “high polyreactivity”.
With “QVQLVESGGGLVQAGGSLRLSCAASGITFNPYGMGWYRPAPGKERELVADITCGGITDYADCVKGRFTIARDNAKNTVYLHKNSLKPEETAVYYCATGDLFVYYWCYVVRLYDYWGQGTQVTVSS” the entry was “low polyreactivity”; with “QVQLVESGGGLVQAGGSLRLSCAASGITFNRYAMGGYRQAPGKERELVASITSGGRTNYADSVKGRFTISRDNAKNTVYLQMNSLKPEDTAVYYCAVRWVRSRSSSLRKANYYWGQGTIVTVSS”, “high polyreactivity”.
Regarding “QVQLVESGGGLVQAGGSLRLSCAASGITFNYYAMGWYRQAPGKERELVAAITDDGNTNYADSVKGRFTISRDNAKNTVYLQMNSLKPEDTAVYYCAADLLGIPDYEYWGQGTQVTVSS”, the “polyreactivity (PSR sort gate)” value is reported as “low polyreactivity”.
With “QVQLVESGGGLVQAGGSLRLSCAASGITFPDYAMGWYRQAPGKERELVATISSSGGNTYYADSVKGRFTISRDNAKNTVYLQMNSLKPEETAVYYCATVSYYCGYDYWGQGTQVTVSS” the entry was “low polyreactivity”; with “QVQLVESGGGLVQAGGSLRLSCAASGITFPFYAMGWYRQAPGKERELVAAISRRGGRTYYADSVKGRFTISRDNAKNTVYLQMNSLKPEDTAVYYCAAANGSADGDYWGQGTQVTVSS”, “high polyreactivity”.
With “QVQLVESGGGLVQAGGSLRLSCAASGITFPLYVMGWSRQAPGKERELVAAISASGGSTYADSVKGRFTISRDNAKNTVYLQMNSLKPEDTAVYYCNADVYVGYEYDYWGQGTQVTVSS” the entry was “low polyreactivity”; with “QVQLVESGGGLVQAGGSLRLSCAASGITFPQYAMGWYRQAPGKERELVAAITSGGSTNYADSVKGRFTISRDNGKNTVYLQMNSLKPEDTGVYYCNTAGYYWLHYTMDYWGQGTQVTVSS”, “high polyreactivity”; with “QVQLVESGGGLVQAGGSLRLSCAASGITFPRYAMGWYRQAPGKERELVATITRSGGGTYYADSVKGRFTISRDNAKNTVNLQMNSLKPEDTAVYYCAAGALQRGVYGYGYWGQGTQVTVSS”, “high polyreactivity”.
For the sequence “QVQLVESGGGLVQAGGSLRLSCAASGITFPSYVMGWYRQAPGKEREFVAAITGSAGSTYYADSVKGRFTISRDNAKYTVYLQMNSLKPEDTAVYYCAARVRYVNPKYYYWGQGTQVTVSS”, the “polyreactivity (PSR sort gate)” value is “high polyreactivity”.
With “QVQLVESGGGLVQAGGSLRLSCAASGITFPYYAMGWYRQAPGKERELVAAISDGGSTNYADSVKGRFTISRDNAKNTVYLQMNSLKPEDTAVYYCAADYRYLFDYWGQGTQVTVSS” the entry was “high polyreactivity”; with “QVQLVESGGGLVQAGGSLRLSCAASGITFQGNAMGWYRQAPGKERELVAAISSGGNTHYADSVKGRFTISRDNAKNTVYLQMNSLKPEDTAVYYCAASYYYTYYWGQGTQVTVSS”, “low polyreactivity”.
With “QVQLVESGGGLVQAGGSLRLSCAASGITFQKNAMGWDRPAPGKEMEWVAGITWRGSTYYADSVKGRFTISRDNAKNTVYLQMNSLKPEETAVYYCAADPFYWYRSVRGEYWGQGTQVTVSS”, the “polyreactivity (PSR sort gate)” value was “low polyreactivity”.
For “QVQLVESGGGLVQAGGSLRLSCAASGITFQKNAMGWYRKAPGKERELVAGITWRGSTYYADSVKGRFTISRDNAKNTVYLQMNSLKPEDTAVYYCAADPFYWYRSFRGEYWGKGTQVTVSS” the value was “low polyreactivity”; for “QVQLVESGGGLVQAGGSLRLSCAASGITFQRNAMGWYRQAPGKERELVAVITSIGGRTYYADSVKGRFTISRDNAKNTVYLQMNSLKPEDTAVYYCNAASATRSADWYDYDYWGQGTQVTVSS”, “high polyreactivity”.
For “QVQLVESGGGLVQAGGSLRLSCAASGITFQRYAMGWYRQAPGKERELVAAISTNGGTTYYADSVKGRFTISRDNAKNTVYLQMNSLKPEDTAVYYCNAESGYVYYFRYNYLGQGTQVTVSS” the value was “high polyreactivity”; for “QVQLVESGGGLVQAGGSLRLSCAASGITFQRYAMGWYRQAPGKERELVAAITRGGSTNYADSVKGRFTISRDNAKNTVYLQMNSLKPEDTAVYYCAAGYKITSVYGFYYWGQGTQVTVSS”, “high polyreactivity”.
With “QVQLVESGGGLVQAGGSLRLSCAASGITFQRYVMGWYRQAPGKERELVAAISFSGSSTYYADSVKGRFTISRDNAKNTVYLQMNSLKPEDTAVYYCAADGSVPKYVPYPRYYGYGYWGQGTQVTVSS” the entry was “high polyreactivity”; with “QVQLVESGGGLVQAGGSLRLSCAASGITFQTYAMGWYRQAPGKERELVAAIRWGGGTTYYADSVKGRFTISRDNAKNTVYLQMNSLKPEDTAVYYCAARTYYRRGGRVDYWGQGTQVTVSS”, “high polyreactivity”; with “QVQLVESGGGLVQAGGSLRLSCAASGITFQTYTMGWYRQAPGKERELVATISWNGGSTYYADSVKGRFTISRDNAKNTVYLQMNSLKPEDNAVYDCATGKWGYFRYNYWGQGTQVTVSS”, “high polyreactivity”.
“QVQLVESGGGLVQAGGSLRLSCAASGITFQYNAMGWYRQAPGKERELVAAINYSGGSTYYADSVKGRYTISRDNAKNTVYLQMNSLKPEDTAVYYCAKDGTDYSHRPGKWEFDSWGQGTQVSVSS”: the “polyreactivity (PSR sort gate)” value is reported as “low polyreactivity”.
With “QVQLVESGGGLVQAGGSLRLSCAASGITFRANAMGWYRQAPGKERELVAAISARGGSTYYADSVKGRFTISRDNAKNTVYLQMNSLKPEDTAVYYCNAVAYRSRSEYDYWGQGTQVTVSS” the entry was “high polyreactivity”.
In the case of “QVQLVESGGGLVQAGGSLRLSCAASGITFRDYAMGWYRQAPGKERELVAAISTRGVRTYYADSVKGRFTISRDNAKNTVYLQMNSLKPEDTAVYYCAARSVTYWWVGYEFYYWGQGTQVTVSS”, the “polyreactivity (PSR sort gate)” value is recorded as “high polyreactivity”.
